The values that follow come from patent US20210388082A1 (NEWBIO THERAPEUTICS, published 2021).

The target of assay [1] is T1, recombinant human CD79b extracellular domain protein (human, UniProt P40259 29-159).
T1 construct: Bought protein; also called CD79b ECD; human CD79b-ECD
T1 sequence: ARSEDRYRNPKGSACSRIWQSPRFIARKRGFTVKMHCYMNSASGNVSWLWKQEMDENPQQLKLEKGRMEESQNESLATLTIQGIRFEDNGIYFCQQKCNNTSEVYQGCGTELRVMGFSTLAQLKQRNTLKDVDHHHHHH
As to the kind of experiment: SPR (Biacore T200), antibody on CM5 chip, CD79b ECD as analyte, 25 C. The procedure: The assay was performed on a Biacore T200 (GE) machine, and the antibody to be tested was diluted to 10 ug/ml with HBS-EP (GE, BR100826) buffer according to the instruction of Amine-Coupling Kit (GE, BR-1000-50). The antibody to be tested was immobilized on a CM5 chip (GE, BR-1006-68) at a fixing time of 300 sec and a flow rate of 10 ul/min. Different concentrations (0.25 nm, 0.5 nm, 1 nm, 2 nm, 4 nm, 8 (×2) nm, 16 nm) of the recombinant CD79b extracellular domain protein diluted with HBS buffer gradient was subjected to capture reaction by Kinetics program, with the binding time of the antigen-antibody set to 300 seconds, dissociation time set to 900 seconds, flow rate of the antigenic protein to 30 ul/min. The dissociation curves were fitted to calculate the KD values of the different antibodies. The above experiments were all carried out at 25° C.
The affinity of the antibody after humanization was tested by the method described in Section 4 of the “Materials and Methods” section.
On the technique in general: In SPR one partner is held on a chip, and binding of the other changes the refractive index at the surface.

Assay [2] has as its target T1, recombinant human CD79b extracellular …. Put plainly: indirect ELISA, plate coated with CD79b antigen. The procedure:
An ELISA anti-antibody was added to bind with the antibody or ADC antibody bound to the solid phase antigen, and unbound anti-antibody was removed by washing. Substrate solution was added, and then the optical density (OD) value at 450 nm/630 nm was read with a microplate reader T, based on which a curve was plotted, and the EC₅₀ was calculated.

Assay [3] shares this target. As to the kind of experiment: ELISA, plate coated with human CD79b-ECD. Here is the method:
(§1) The experimental procedure was as follows: 96-well plates (Corning, CAT #9018) were coated with 100 μL/well of antigen (human CD79b-ECD, novoprotein, CA29) at 1 μg/mL in PBS (10 mM phosphate, 138 mM NaCl, pH 7.2) at 4° C. overnight, and then blocked with 250 ul/well of blocking solution (PBS+1% BSA (Sangon, CAT #A0332)) for one to three hours at 25° C. Plates were washed 3 times with a washing solution (PBS+0.05% Tween-20 (Sangon, CAT #TB0560)), and then incubated with 100 μL of anti-CD79b antibody in serial dilutions in blocking solution in duplicate wells at 25° C. for 2 h. Plates were washed 3 times with washing solution and then incubated with 100 μL of 1:10,000 the secondary antibody (anti-mouse IgG (Fc)-HRP, Sigma, CAT #A00168 or anti-human IgG F(ab′)2-HRP, Sigma, CAT #A0293) at 25° C. for 1 h. Plates were washed 3 times with washing solution, and then 100 μL of TMB (Sangon, CAT #TB0954) was added to each well and incubated at 25° C. until color developed (approximately 15 min). Reactions were stopped by addition of 100 μl/well stop solution (1N H2SO4). OD450/630 nm was read on plate reader in 10 minutes.
The in vitro binding activity of the anti-CD79b humanized antibody to the extracellular domain of human CD79b was examined by ELISA as described in Section 1 of the Materials and Methods section.
(ELISA stands for enzyme-linked immunosorbent assay.)

The target in assay [4] is T2, CD79b on the surface of human lymphoma cell lines (human, UniProt P40259 29-229).
T2 sequence (looked up): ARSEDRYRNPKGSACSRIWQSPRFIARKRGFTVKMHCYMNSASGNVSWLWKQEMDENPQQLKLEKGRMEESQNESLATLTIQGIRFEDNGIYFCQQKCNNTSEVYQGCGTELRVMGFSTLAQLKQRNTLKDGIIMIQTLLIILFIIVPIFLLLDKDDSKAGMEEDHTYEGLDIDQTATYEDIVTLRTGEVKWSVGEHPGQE
As to the kind of experiment: cell-based or functional assay.

The target in assay [5] is T2, CD79b on the surface of human lymphoma …. As to the kind of experiment: cell-based or functional assay. The source holds these as a separate data set.
Assay [6] has as its target T1, recombinant human CD79b extracellular …. As to the kind of experiment: ELISA, plate coated with human CD79b-ECD. The procedure:
as §1
This is another data set of the same source.

For assay [7], the target named is T2, CD79b on the surface of human lymphoma …. As to the kind of experiment: cell-based or functional assay. This is another data set of the same source.

B1: Humanized antibody AS11259 (antibody, human IgG1, kappa)
heavy: not shown
light: DVVMTQSPLSLPVTLGQPASISCRSSQNIVHSDGNTYLEWYQQRPGQSPRLLIYKVSFRLSGVPDRFSGSGSGTDFTLKISRVEAEDVGVYYCFQGSHVPWTFGGGTKVEIKRTVAAPSVFIFPPSDEQLKSGTASVVCLLNNFYPREAKVQWKVDNALQSGNSQESVTEQDSKDSTYSLSSTLTLSKADYEKHKVYACEVTHQGLSSPVTKSFNRGEC
notes: Humanized IgG1 / kappa; also called naked antibody AS11259
As a reminder, the Kd is the concentration at which binding is half-saturated. A word on the koff: it is the first-order rate constant of dissociation. Broadly, the kon is the second-order rate constant of association. A word on the EC50: it is the concentration giving half of the maximal effect. Take B1: in assay [1], the Kd came to 0.0216 nM, the koff is 3.63e-05 s⁻¹ and the kon was determined as 1.68e+06 M⁻¹ s⁻¹. Further, the EC50 in assay [2] amounted to 0.0178 µg/mL. Moreover, in assay [3], the EC50 amounted to 0.0583 µg/mL.

B2: Humanized antibody AS11164 (antibody, human IgG1, kappa, V domains shown)
VH: QVQLVQSGAEVKKPGSSVKVSCKTSGNTFTSYGINWVRQAPGQGLEWMGEIFPRSGNIYYNEKFKGKVTITADKSTSTAYMELSSLRSEDTAVYYCAKGGTGDFDYWGQGTLVTVSS
VL: DVLMTQSPLSLPVTLGQPASISCRSSQNIVHSDGNTYLEWYQQRPGQSPKLLIYKVSFRLSGVPDRFSGSGSGTDFTLKISRVEAEDVGVYYCFQGSHVPWTFGGGTKVEIKR
notes: Humanized IgG1 / kappa
B2: in assay [1], the dissociation constant (Kd) was determined as 0.0128 nM, the off-rate (koff) was 2.44e-05 s⁻¹ and the kon is 1.91e+06 M⁻¹ s⁻¹. Further, the EC50 in assay [3] came out at 0.064 µg/mL.

B3: Humanized antibody AS11254 (antibody, human IgG1, kappa, V domains shown)
VH: QVQLVQSGAEVKKPGASVKVSCKTSGNTFTSYGINWVKQAPGQGLEWMGEIFPRSGNIYYNEKFKGRVTITADKSTSTAYMELSSLRSEDTAVYYCAKGGTGDFDYWGQGTLVTVSS
VL: DVVMTQSPLSLPVTLGQPASISCRSSQNIVHSDGNTYLEWYQQRPGQSPRLLIYKVSFRLSGVPDRFSGSGSGTDFTLKISRVEAEDVGVYYCFQGSHVPWTFGGGTKVEIKR
notes: Humanized IgG1 / kappa
Take B3: in assay [1], the dissociation constant (Kd) amounted to 0.0187 nM, the koff worked out at 2.87e-05 s⁻¹ and the kon was 1.53e+06 M⁻¹ s⁻¹. Also, the EC50 in assay [3] was 0.0501 µg/mL.

B4: Humanized antibody AS11161 (antibody, human IgG1, kappa, V domains shown)
VH: QVQLVQSGAEVKKPGSSVKVSCKTSGNTFTSYGINWVRQAPGQGLEWMGEIFPRSGNIYYNEKFKGKVTITADKSTSTAYMELSSLRSEDTAVYYCAKGGTGDFDYWGQGTLVTVSS
VL: DVVMTQSPLSLPVTLGQPASISCRSSQNIVHSDGNTYLEWYQQRPGQSPRLLIYKVSFRLSGVPDRFSGSGSGTDFTLKISRVEAEDVGVYYCFQGSHVPWTFGGGTKVEIKR
notes: Humanized IgG1 / kappa
B4: in assay [1], the Kd was found to be 0.014 nM, the koff amounted to 2.84e-05 s⁻¹ and the kon was determined as 2.02e+06 M⁻¹ s⁻¹. For the same molecule, in assay [3], the EC50 turned out to be 0.0431 µg/mL.

B5: Humanized antibody AS11252 (antibody, human IgG1, kappa)
heavy: not shown
light: DVVMTQSPLSLPVTLGQPASISCRSSQNIVHSDGNTYLEWYQQRPGQSPRLLIYKVSFRLSGVPDRFSGSGSGTDFTLKISRVEAEDVGVYYCFQGSHVPWTFGGGTKVEIKRTVAAPSVFIFPPSDEQLKSGTASVVCLLNNFYPREAKVQWKVDNALQSGNSQESVTEQDSKDSTYSLSSTLTLSKADYEKHKVYACEVTHQGLSSPVTKSFNRGEC
notes: Humanized IgG1 / kappa
Take B5: in assay [1], the Kd is 0.0285 nM, the koff worked out at 4.22e-05 s⁻¹ and the kon was determined as 1.48e+06 M⁻¹ s⁻¹. For the same molecule, the EC50 in assay [3] was determined as 0.0499 µg/mL.

B6: recombinant chimeric antibody 104E1 conjugated to BMP-vcMMAE (other)
VH: QVQLQQSGSELARPGASVKLSCKTSGNTFTSYGINWVKQRTGQGLEWIGEIFPRSGNIYYNEKFKGKATLTADKSSSTAYMELRSLTSEDSAVYFCAKGGTGDFDYWGQGTTLTVSS
VL: DVLMTQTPLSLPVSLGDQASISCRSSQNIVHSDGNTYLEWYLQKPGQSPKLLIYKVSFRLSGVPDRFSGSGSGTDFTLKIRRVEAEDLGTYYCFQGSHVPWTFGGGTKLEIK
modifications: antibody conjugated to BMP-vcMMAE (linker-drug 1); positions not given
As for B6, in assay [4], the “Inhibitory effect on the lymphoma cell proliferation IC50, BJAB” value amounted to 0.00881 µg/mL; the “Inhibitory effect on the lymphoma cell proliferation IC50, DoHH2” value amounted to 0.00426 µg/mL; the “Inhibitory effect on the lymphoma cell proliferation IC50, Granta-519” value turned out to be 0.0296 µg/mL; the “Inhibitory effect on the lymphoma cell proliferation IC50, Ramos” value stood at 0.00442 µg/mL. In addition, in assay [4], the “Inhibitory effect on the lymphoma cell proliferation IC50, SU_DHL-4” value was 0.00946 µg/mL; the “Inhibitory effect on the lymphoma cell proliferation IC50, U-698-M” value worked out at 0.0159 µg/mL; the “Inhibitory effect on the lymphoma cell proliferation IC50, WSU-DLCL2” value was 0.0168 µg/mL. For the same molecule, in assay [5], the “Inhibitory activity on lymphoma cell proliferation IC50, BJAB” value was found to be 0.0104 µg/mL; the “Inhibitory activity on lymphoma cell proliferation IC50, DoHH2” value is 0.00575 µg/mL; the “Inhibitory activity on lymphoma cell proliferation IC50, Granta-519” value was found to be 0.0208 µg/mL; the “Inhibitory activity on lymphoma cell proliferation IC50, Ramos” value amounted to 0.00602 µg/mL. Further, in assay [5], the “Inhibitory activity on lymphoma cell proliferation IC50, SU-DHL-4” value was 0.0119 µg/mL; the “Inhibitory activity on lymphoma cell proliferation IC50, U-698-M” value stood at 0.00952 µg/mL; the “Inhibitory activity on lymphoma cell proliferation IC50, WSU-DLCL2” value worked out at 0.0182 µg/mL.

B7: recombinant human-mouse chimeric antibody 104E1 (antibody, V domains shown)
VH: QVQLQQSGSELARPGASVKLSCKTSGNTFTSYGINWVKQRTGQGLEWIGEIFPRSGNIYYNEKFKGKATLTADKSSSTAYMELRSLTSEDSAVYFCAKGGTGDFDYWGQGTTLTVSS
VL: DVLMTQTPLSLPVSLGDQASISCRSSQNIVHSDGNTYLEWYLQKPGQSPKLLIYKVSFRLSGVPDRFSGSGSGTDFTLKIRRVEAEDLGTYYCFQGSHVPWTFGGGTKLEIK
notes: also called chimeric 104E1
For the molecule B7, in assay [1], the Kd came out at 0.0341 nM, the koff came out at 5.52e-05 s⁻¹ and the on-rate constant (kon) came out at 1.62e+06 M⁻¹ s⁻¹.

B8: murine anti-CD79b monoclonal antibody 104E1 (antibody, V domains shown)
VH: QVQLQQSGSELARPGASVKLSCKTSGNTFTSYGINWVKQRTGQGLEWIGEIFPRSGNIYYNEKFKGKATLTADKSSSTAYMELRSLTSEDSAVYFCAKGGTGDFDYWGQGTTLTVSS
VL: DVLMTQTPLSLPVSLGDQASISCRSSQNIVHSDGNTYLEWYLQKPGQSPKLLIYKVSFRLSGVPDRFSGSGSGTDFTLKIRRVEAEDLGTYYCFQGSHVPWTFGGGTKLEIK
notes: Mouse hybridoma antibody, tested as supernatant; also called murine antibody 104E1
For B8, the EC50 in assay [6] is 0.0149 µg/mL. The “IC50 against BJAB (secondary ADC assay with HB58-ADC)” value in assay [7] amounted to 0.0093 µg/mL.
